1 molecule from patent US20060063231, “Compositions and methods for protein production” (Sangamo BioSciences, Inc., published 2006) can be followed below.

This data set concerns the target 2392/10 ZFP-VP16 fusion (Artificial Sequence). The data set can be described thus: cell_activity; Epo secretion, 2392/10-7 CHO cells; additional three-fold over CMV promoter. The text has this:
Three different erythropoietin (Epo)-expressing constructs were constructed. In the first, Epo expression was controlled by a CMV promoter fused to a β-globin intron (CMV). In the second, Epo expression was controlled by a CMV promoter containing ten upstream copies of the 2392/10 binding site, fused to a β-globin intron (CMVz10, Example 6). In the third, Epo expression was controlled by a SRα promoter with six additional copies of the 2392/10 binding site immediately upstream of the promoter (SRαZ6, Example 5). The three constructs were transiently transfected into either parental DG44 CHO cells or the ZFP-expressing 2392/10-7 cell line. After 24 hours, Epo secretion was measured by ELISA.

B1: CMVz10 promoter target-site insert (dsDNA)
DNA 1: ACGCGTTCATTCCACAGCTCTCATTCCACAGCTCTCATTCCACAGCTCTCATTCCACAGCTCTCATTCCACAGCTCTCATTCCACAGCTCTCATTCCACAGCTCTCATTCCACAGCTCTCATTCCACAGCTCTCATTCCACAGTCACGCGT
DNA 2: ACGCGTGACTGTGGAATGAGAGCTGTGGAATGAGAGCTGTGGAATGAGAGCTGTGGAATGAGAGCTGTGGAATGAGAGCTGTGGAATGAGAGCTGTGGAATGAGAGCTGTGGAATGAGAGCTGTGGAATGAGAGCTGTGGAATGAACGCGT
On to B1, for which the activity worked out at 3 fold activation.
